{"source": "paper PMC5037179", "about": "(Frontiers in Molecular Biosciences, 2016)", "molecules": {"B1": {"name": "HscB (natural protein, E. coli)", "chain": "MDYFTLFGLPARYQLDTQALSLRFQDLQRQYHPDKFASGSQAEQLAAVQQSATINQAWQTLRHPLMRAEYLLSLHGFDLASEQHTVRDTAFLMEQLELREELDEIEQAKDEARLESFIKRVKKMFDTRHQLMVEQLDNETWDAAADTVRKLRFLDKLRSSAEQLEEKLLDF", "notes": "HscB, co-chaperone of the isc operon, E. coli; subcloned by PCR from bacterial genomic DNA; Uniformly 15N-labelled (HSQC) or 2H,15N-labelled (cross saturation) for NMR; unlabelled in MST, cross-linking and when added to 15N IscU; also called co-chaperone HscB; source: E. coli BL21(DE3), purified (Ni-NTA, TEV cleavage, gel filtration)"}, "B2": {"name": "apo-Fdx (natural protein, E. coli, UniProt P0A9R4 1-111, looked up)", "chain": "MPKIVILPHQDLCPDGAVLEANSGETILDAALRNGIEIEHACEKSCACTTCHCIVREGFDSLPESSEQEDDMLDKAWGLEPESRLSCQARVTDEDLVVEIPRYTINHAREH", "notes": "Fdx, ferredoxin of the isc operon, E. coli; subcloned by PCR from bacterial genomic DNA; also called ferredoxin; source: E. coli BL21(DE3), purified (Ni-NTA, TEV cleavage, gel filtration)"}}, "key": {"IscU (Escherichia coli)": {"target": "IscU (Escherichia coli) (UniProt P0ACD4)", "sequence (P0ACD4 whole entry)": "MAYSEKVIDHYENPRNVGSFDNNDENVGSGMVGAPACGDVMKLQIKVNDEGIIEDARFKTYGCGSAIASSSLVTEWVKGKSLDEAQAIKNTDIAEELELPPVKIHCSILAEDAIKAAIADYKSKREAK", "details": "cited from earlier work"}, "IscS [1]": {"target": "T1, IscS (E. coli, UniProt P0A6B7 1-404)", "T1 construct": "IscS, pyridoxal phosphate dependent cysteine desulfurase of the isc operon, E. coli; subcloned by PCR from bacterial genomic DNA; For MST only, IscS was labelled with the amine-reactive dye NT-647 (about 0.67 dye molecules per IscS, RED-NHS kit); unlabelled in all other experiments; also called desulfurase IscS; wild-type IscS; source: E. coli BL21(DE3), purified (Ni-NTA, TEV cleavage, gel …)", "T1 sequence (P0A6B7 whole entry)": "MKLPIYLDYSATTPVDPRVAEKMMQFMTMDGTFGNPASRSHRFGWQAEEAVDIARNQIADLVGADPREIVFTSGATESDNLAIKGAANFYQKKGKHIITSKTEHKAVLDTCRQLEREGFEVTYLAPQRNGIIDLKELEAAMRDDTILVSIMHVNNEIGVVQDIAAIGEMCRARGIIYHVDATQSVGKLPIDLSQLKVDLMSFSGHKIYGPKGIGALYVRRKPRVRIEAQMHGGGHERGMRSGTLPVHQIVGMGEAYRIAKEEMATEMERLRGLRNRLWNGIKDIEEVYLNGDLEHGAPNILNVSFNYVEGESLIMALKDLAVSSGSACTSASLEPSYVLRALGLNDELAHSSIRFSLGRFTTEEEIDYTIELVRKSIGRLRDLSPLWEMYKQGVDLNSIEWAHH", "experiment": "MST; IscS labelled with NT-647 at 52 nM, HscB serially diluted 1:1 from 600 uM (12 solutions); 20 mM Tris-HCl pH 8, 150 mM NaCl, 0.5 mM TCEP, 0.05% Tween-20; 25 C; 40-60% LED power, 17% IR-laser power; 1:1 stoichiometry assumed", "details": "both partners purified"}, "IscS [2]": {"target": "T1, IscS", "experiment": "NMR titration; competition: 15N HSQC of 100 uM 15N-labelled HscB in complex with unlabelled IscS (1:1), titrated with CyaY or apo-Fdx up to 1:1:3", "details": "both partners purified"}}}
{"molecule": "IscS (from UniProt P0A6B7)", "values": [{"measurement": "Kd", "setting": "IscU (Escherichia coli)", "value": 10, "unit": "µM"}]}
{"molecule": "B1", "values": [{"measurement": "Kd", "setting": "IscS [1]", "value": "10 to 30", "unit": "µM"}]}
{"molecule": "B2", "values": [{"measurement": "binding result", "setting": "IscS [2]", "value": "binds"}]}
